The values that follow come from IntAct's records for PubMed 21422170.

B1: Natural cytotoxicity triggering receptor 3 (Homo sapiens), O14931 (parent)
chain: MAWMLLLILIMVHPGSCALWVSQPPEIRTLEGSSAFLPCSFNASQGRLAIGSVTWFRDEVVPGKEVRNGTPEFRGRLAPLASSRFLHDHQAELHIRDVRGHDASIYVCRVEVLGLGVGTGNGTRLVVEKEHPQLGAGTVLLLRAGFYAVSFLSVAVGSTVYYQGKCLTWKGPRRQLPAVVPAPLPPPCGSSAHLLPPVPGG
partner: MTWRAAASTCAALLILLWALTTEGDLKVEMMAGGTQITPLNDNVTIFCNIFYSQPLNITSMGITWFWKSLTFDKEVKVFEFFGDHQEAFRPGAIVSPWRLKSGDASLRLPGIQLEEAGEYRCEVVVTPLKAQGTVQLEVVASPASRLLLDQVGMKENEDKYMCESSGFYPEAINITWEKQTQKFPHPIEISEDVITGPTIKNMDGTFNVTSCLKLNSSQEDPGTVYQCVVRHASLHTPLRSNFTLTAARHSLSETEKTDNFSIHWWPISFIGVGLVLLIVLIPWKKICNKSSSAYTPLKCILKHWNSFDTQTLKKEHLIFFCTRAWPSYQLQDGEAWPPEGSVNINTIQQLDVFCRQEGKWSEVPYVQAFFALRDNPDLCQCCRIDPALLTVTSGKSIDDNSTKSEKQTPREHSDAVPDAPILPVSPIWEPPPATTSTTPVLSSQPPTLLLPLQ

The variants in the assay derive from B1. The note with it: with nr3l1_human NCR3LG1, Q68D85.
With S52R, the “effect of a mutation on the interaction” value is on record as “disrupting interaction strength”. Regarding I50A;S52A, the “effect of a mutation on the interaction” value is listed as “decreasing interaction strength”.

On to F85A;L86A, for which the “effect of a mutation on the interaction” value is recorded as “decreasing interaction strength”.
